Laboratory results: patent US20190153103A1 (AbbVie / Abbott, published 2019)

T1: rat-his
T1 construct: soluble analyte of the Biacore runs; also called rSCRx91-his; rBMPR1B-CHis
T1 chain: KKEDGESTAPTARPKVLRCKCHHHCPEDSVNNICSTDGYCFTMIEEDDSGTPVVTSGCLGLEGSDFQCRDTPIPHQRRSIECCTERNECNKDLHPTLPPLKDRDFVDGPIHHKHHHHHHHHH

T2: hBMPR1B-His (human BMPR1B extracellular domain, residues K14 to R126, with C-terminal 9x-Histidine tag) (human, UniProt O00238 14-126)
T2 construct: Residues K14-R126 are counted on the hBMPR1B ORF (NM_001203); The IgK signal peptide of the vector is left out; also called hBMPR1B-CHis; human BMPR1B-his
T2 sequence: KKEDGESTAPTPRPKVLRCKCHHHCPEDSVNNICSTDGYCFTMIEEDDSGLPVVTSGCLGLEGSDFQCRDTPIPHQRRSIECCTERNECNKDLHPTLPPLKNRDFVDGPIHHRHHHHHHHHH

T3: human BMPR1B coated on MSD plates (construct not stated) (human, UniProt O00238 14-126, limits assumed)
T3 construct: also called BMPR1B receptor
T3 sequence: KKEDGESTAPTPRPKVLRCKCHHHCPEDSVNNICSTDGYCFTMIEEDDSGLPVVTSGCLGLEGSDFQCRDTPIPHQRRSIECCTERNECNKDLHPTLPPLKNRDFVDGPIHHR


Key:
Cyno-his = target: T4, Cyno-his (cynomolgus); assay: Biacore
T4 construct: extracellular domain; soluble analyte of the Biacore runs; also called cSCRx91-his; cBMPR1B-CHis

rat-his = target: T1, rat-his; assay: Biacore
[1] = target: T2, hBMPR1B-His (human BMPR1B extracellular …); assay: Biacore
[2] = target: T5, human BMPR1B overexpressed on the surface of HEK293T cells (N-terminal Asp-Lys epitope tag, … (human, UniProt O00238 14-502)); assay: flow cytometry
T5 construct: also called HEK293T cells overexpressing hBMPR1B; BMPR1B-expressing HEK293T cells

[3] = target: T6, rat BMPR1B overexpressed on the surface of HEK293T cells (N-terminal Asp-Lys epitope tag, … (rat, UniProt A0A8I6A0G0 62-550)); assay: flow cytometry
T6 construct: whole, on cells
T6 sequence (chain, as listed by the source): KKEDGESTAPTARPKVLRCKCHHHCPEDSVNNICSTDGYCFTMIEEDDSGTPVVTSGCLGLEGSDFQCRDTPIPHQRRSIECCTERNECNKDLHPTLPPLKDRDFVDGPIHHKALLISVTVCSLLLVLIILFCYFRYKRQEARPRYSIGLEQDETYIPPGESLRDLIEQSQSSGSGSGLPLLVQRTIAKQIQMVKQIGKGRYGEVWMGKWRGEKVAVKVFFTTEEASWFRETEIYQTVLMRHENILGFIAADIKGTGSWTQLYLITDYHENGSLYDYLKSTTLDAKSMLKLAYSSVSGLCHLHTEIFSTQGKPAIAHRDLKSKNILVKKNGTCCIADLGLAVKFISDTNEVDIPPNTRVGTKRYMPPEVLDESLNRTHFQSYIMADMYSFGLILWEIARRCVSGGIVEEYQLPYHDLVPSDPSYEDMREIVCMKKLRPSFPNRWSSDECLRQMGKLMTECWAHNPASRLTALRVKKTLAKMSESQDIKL

[4] = target: T7, cynomolgus BMPR1B overexpressed on the surface of HEK293T cells (N-terminal Asp-Lys epitope tag, … (cynomolgus)); assay: flow cytometry
T7 construct: whole, on cells

[5] = target: T5, human BMPR1B overexpressed on the …; assay: cell-based or functional assay
[6] = target: T6, rat BMPR1B overexpressed on the surface …; assay: cell-based or functional assay
[7] = target: T7, cynomolgus BMPR1B overexpressed on the …; assay: cell-based or functional assay
[8] = target: T3, human BMPR1B coated on MSD plates …; assay: MSD ELISA, BMP2 blocked; set-up: concentration or dose not given beside the values
[9] = target: T3, human BMPR1B coated on MSD plates …; assay: MSD ELISA, BMP4 blocked; set-up: concentration or dose not given beside the values

Row | Kd (Cyno-his) [nM] | Kd (rat-his) [nM] | Kd [1] [nM] | gMFI [2] | gMFI [3] | gMFI [4] | % live, Fab-saporin, 250pM [5] [%] | % live, Fab-saporin, 250pM [6] [%] | % live, Fab-saporin, 250pM [7] [%] | % inhibition [8] [%] | % inhibition [9] [%] | binding result (rat-his) | Binder
1 | < 0.1 | < 2 | 1.21 | 15800 | 6220 | 10900 | 20.5 | 38.8 | 25.4 | 29 | 79 | – | SC91.146 (antibody, V domains shown) VH: QVQLQQPGAELVKPGASVKLSCKASGYTFTSYWMHWVKQRPGQGLEWIGDIDPSDRYTNYNQKFKGKATLTVDTTSSTAYMQLSSLTSEDSAVYYCAISGWDYFDYWGQGTTLTVSS VL: not shown
2 | 0.937 | 1.84 | 0.658 | 24500 | 9660 | 16000 | 21 | 37.3 | 17.6 | 10 | 79 | – | SC91.138 (antibody, V domains shown) VH: QVQLQQPGAELVMPGASVKLSCKASGYTFTNYWMHWVKQRPGQGLEWIGEIDPSDVYTTYNQKFKDKATLTVDKSSSTAYMQLINLTSEDSAVYYCARSGWDYFDYWGQGTALTVSS VL: not shown
3 | 1.62 | 0.561 | 0.564 | 26900 | 10200 | 16000 | 23.1 | 39.2 | 18.5 | 40 | 83 | – | SC91.129 (antibody, V domains shown, copies: 2 + 2) VH: QVQLQQPGAELVKPGASVKLSCKASGYTFTNYWMQWVKQRPGQGLEWIGEIDPSDRYTLYNQKFKDKATLTVDTSSSTAYMQLSSLTSEDSAVYYCARFGYYVDYWGQGTTLTVSS VL: DAVMTQSPLSLPVSLGDQASISCRSSQSLVHSTGNTYLHWYLQKPGQSPKLLIYKVSNRFSGVPDRFSGSGSGTDFTLKISRVEAEDLGVYFCSQTTHVPFTFGSGTKLEIK
4 | 2 | < 0.1 | 1.03 | 27000 | 10600 | 15400 | 18.3 | 29.1 | 20.7 | 47 | 84 | – | SC91.149 (antibody, V domains shown) VH: QVQLLQPGAELVKPGSSVKVSCKASGYTFTNYWMQWVKQRPGQGLEWIGEIDPSDTYTLYNQKFKGKATLTVDTSSSTAYMQLSSLTSEDSAVYYCARFGYYVDYWGQGTTLTVSS VL: DVVMTQTPLSLPVSLGDQASISCRSSQSLVHSTGNTYFHWYLQKPGQSPELLIYKVSNRFSGVPDRFRGSGSGTDFTLKISRVEAEDLGVYFCSQSTHVPFTFGSGTKLEIK
5 | 4.47 | 1.18 | 1.96 | 24000 | 9510 | 15000 | 19.6 | 34.1 | 18 | 51 | 81 | – | SC91.172 (antibody, V domains shown) VH: QVQLQQPGADLVKPGTSVKLSCKASGYTFTSYWMQWVKQRPGQGLEWIGEIDPSDTYTMYNQKFKGKATLTVDTSSSTAYMQLSSLTSEDSAVYYCARFGYYVDYWGQGTTLTVSS VL: DVVMTQTPLSLPVSLGDQASISCRSSQSLVHSTGNTYLHWYLQKAGQSPKLLIYKVSNRFSGVPDRFSGSGSGTDFTLKISRVEAEDLGVYFCSQSTHVPFTFGSGTKLEIK
6 | 5.58 | 3.25 | 2.86 | 25900 | 9680 | 14800 | 19.1 | 36.7 | 24.2 | 37 | 83 | – | SC91.187 (antibody, V domains shown) VH: QVQLQQPGPEFVKPGASVKLSCKASGYTFTSYWVQWVKQRPGQGLEWIGEIDPSDNYTLYNQNFKGKATLTVDTSSSTAYMQLSSLTSEDSAVYYCARFGFYVDYWGQGTTLTVSS VL: DVVMTQTPLSLPVSLGEQASISCRSSQSLVHSTGNTYLHWYLQKPGQSPKLLIYKVSNRFSGVPDRFSGSGSGTDFTLKISRVEAEDLGVYFCSQSTHVPFTFGSGTKLEIK
7 | 5.52 | 5.35 | 6.44 | 17300 | 7510 | 11500 | 24.9 | 40.8 | 34.7 | 35 | 65 | – | SC91.119 (antibody, V domains shown) VH: QVTLKESGPGILQPSQTLSLTCSFSGLSLSTPGMSVGWIRQPSGKGLEWLAHIWWNDDKSYNPALKSRLTISKDTSNNQVFLKIASVVTADTATYYCARGDRFAYWGQGTLVTVSA VL: not shown
8 | 38.8 | – | 3.12 | 27000 | – | 15800 | 24.3 | 77.9 | 34.6 | 47 | 79 | binds | SC91.160 (antibody, V domains shown) VH: QIQLVQSGPELKKPGETVKISCKASGYTFTTYGMNWVKQAPGKGLKWMGWINTYSGVPSSADDFKGRFAFSLETSASTAYLLINNLKNEDTATYFCARSELRNWYFDVWGTGTTVTVSS VL: SFVMTQTPKFLLVSAGDRVTITCKASQNMGHDVAWYQQKPGQSPKLLIYSASNRYTGVPDRFTGSGYGTDFTFTISTVQAEDLAVYFCQQDYSSPFTFGSGTKLEMK
9 | – | – | 6.67 | 25200 | 3810 | 9120 | 20.3 | 87.1 | 52.9 | 36 | 69 | – | SC91.111 (antibody, V domains shown, copies: 2 + 2) VH: QIQLVQSGPELKKPGETVKISCKASGYTLTTYGMNWVKQAPGKGLKWMGWINTYSGVPAYADDFKGRFAFSLETSASTAYLQINNFKNEDTATYFCARSELRNWYFDVWGTGTTVTVSS VL: SFVMTQTPKFLLVSAGDRVTITCKASQNMGHNVAWYQQKPGQSPKLLIYYASNRYTGVPDRFTGSGYGTDFTFTISTVQAEDLAVYFCQQDYSSPFTFGSGTKLEIK
10 | – | – | 1.12 | 25300 | 7690 | 14600 | 29.3 | 81.1 | 45.1 | 49 | 79 | binds | SC91.155 (antibody, V domains shown) VH: QIQLVQSGPELKKPGETVKISCKASGYTFTTYGMNWVKQAPGKGLKWMGWINSYSGVPAYADDFKGRFAFSLETFASTAYLQINNLRDEDTATYFCARSELRNWYFDVWGTGTTVTVSS VL: SFVMTQTPKFLLVSAGDRVTITCKASQNLGNDVAWYQQKPGQSPRLLIYFASNRYTGVPDRFTGSGYGTDFTFTISTVQAEDLAVYFCQQDYSSPFTFGSGTKLEIK
